Measurements taken from paper doi:10.1101/2021.11.25.470006 (bioRxiv, 2021).

B1: Nse1 (natural protein, S. cerevisiae)
chain: MEVHEEQVSAPVTGDATAKYLLQYILSARGICHENALILALMRLETDASTLNTEWSIQQWVDKLNDYINAINVKLNLLGYKIIRINHGIGRNAVTLKAKQNFESFEDNTAIRAHNNDYAVLQSIVLPESNRFFVYVNLASTEETKLATRFNQNEIEFMKWAIEQFMISGETIVEGPALETSIIVKEVNRILVAATGDSNLAKWRKFSTFTVGSTNLFQFQELTATDIEDLLLRLCELKWFYRTQEGKFGIDLRCIAELEEYLTSMYNLNTCQNCHKLAIQGVRCGNESCREENEETGENSLSQIWHVDCFKHYITHVSKNCDRCGSSLITEGVYVI
modifications: BS3-crosslinked within the holo-complex
B2: Nse2 (Mms21) (natural protein, S. cerevisiae)
chain: ALNDNPIPKSVPLHPKSGKYFHNLHARDLSNIYQQCYKQIDETINQLVDSTSPSTIGIEEQVADITSTYKLLSTYESESNSFDEHIKDLKKNFKQSSDACPQIDLSTWDKYRTGELTAPKLSELYLNMPTPEPATMVNNTDTLKILKVLPYIWNDPTCVIPDLQNPADEDDLQIEGGKIELTCPITCKPYEAPLISRKCNHVFDRDGIQNYLQGYTTRDCPQAACSQVVSMRDFVRDPIMELRCKIAKMKESQEQDKRSSQAIDVL
modifications: BS3-crosslinked within the holo-complex
B3: Smc5 (Walker B mutant E1015Q) (natural protein, S. cerevisiae)
chain: MTSLIDLGRYVERTHHGEDTEPRSKRVKIAKPDLSSFQPGSIIKIRLQDFVTYTLTEFNLSPSLNMIIGPNGSGKSTFVCAVCLGLAGKPEYIGRSKKVEDFIKNGQDVSKIEITLKNSPNVTDIEYIDARDETIKITRIITRSKRRSDYLINDYQVSESVVKTLVAQLNIQLDNLCQFLSQERVEEFARLKSVKLLVETIRSIDASLLDVLDELRELQGNEQSLQKDLDFKKAKIVHLRQESDKLRKSVESLRDFQNKKGEIELHSQLLPYVKVKDHKEKLNIYKEEYERAKANLRAILKDKKPFANTKKTLENQVEELTEKCSLKTDEFLKAKEKINEIFEKLNTIRDEVIKKKNQNEYYRGRTKKLQATIISTKEDFLRSQEILAQTHLPEKSVFEDIDIKRKEIINKEGEIRDLISEIDAKANAINHEMRSIQRQAESKTKSLTTTDKIGILNQDQDLKEVRDAVLMVREHPEMKDKILEPPIMTVSAINAQFAAYLAQCVDYNTSKALTVVDSDSYKLFANPILDKFKVNLRELSSADTTPPVPAETVRDLGFEGYLSDFITGDKRVMKMLCQTSKIHTIPVSRRELTPAQIKKLITPRPNGKILFKRIIHGNRLVDIKQSAYGSKQVFPTDVSIKQTNFYQGSIMSNEQKIRIENEIINLKNEYNDRKSTLDALSNQKSGYRHELSELASKNDDINREAHQLNEIRKKYTMRKSTIETLREKLDQLKREARKDVSQKIKDIDDQIQQLLLKQRHLLSKMASSMKSLKNCQKELISTQILQFEAQNMDVSMNDVIGFFNEREADLKSQYEDKKKFVKEMRDTPEFQSWMREIRSYDQDTKEKLNKVAEKYEEEGNFNLSFVQDVLDKLESEIAMVNHDESAVTILDQVTAELRELEHTVPQQSKDLETIKAKLKEDHAVLEPKLDDIVSKISARFARLFNNVGSAGAVRLEKPKDYAEWKIEIMVKFRDNAPLKKLDSHTQSGGERAVSTVLYMIALQEFTSAPFRVVDQINQGMDSRNERIVHKAMVENACAENTSQYFLITPKLLTGLHYHEKMRIHCVMAGSWIPNPSEDPKMIHFGETSNYSFD
modifications: BS3-crosslinked within the holo-complex
B4: Nse4 (HALO-tagged) (natural protein, S. cerevisiae)
chain: MSSTVISRKRRNSTVTEPDSSGETRKQKKSRSDEKSSSSKDGDPQLEFKVLQGYRDLESEMHKGRAQVTRTGDIGVAMDNLNAVDSLFNKVIGIKNNGLFAHDARAMVSISELAQISVRNLKFDDSRSMVNLENIVNSLKRYMLKEHFKLNNIAENRNDLTLAADEQSAADQQEESDGDIDRTPDDNHTDKATSSFKATSMRHSYLQQFSHYNEFSQFNWFRIGALYNTISKNAPITDHLMGPLSIEKKPRVLTQRRRNNDQVGEKITAEKITQHSLNSTQQETTPEQVKKCFKKLSKKLGPEGSINLFKFIIDPNSFSRSIENLFYTSFLIKEGKLLMEHDEEGLPTIKIKQSISHTDSRSKEIERQRRRAAHQNHIIFQMDMPTWRKLIKKYNITSPFLD
modifications: BS3-crosslinked within the holo-complex

Columns and labels:
Assay in all cases: cryo-EM structure
[1] = target: B4
[2] = target: B3
[3] = target: T1, Smc6 (Walker B mutant E1048Q) (S. cerevisiae, UniProt Q12749 1-1114, E1048Q, BS3-crosslinked within the holo-complex)
T1 sequence: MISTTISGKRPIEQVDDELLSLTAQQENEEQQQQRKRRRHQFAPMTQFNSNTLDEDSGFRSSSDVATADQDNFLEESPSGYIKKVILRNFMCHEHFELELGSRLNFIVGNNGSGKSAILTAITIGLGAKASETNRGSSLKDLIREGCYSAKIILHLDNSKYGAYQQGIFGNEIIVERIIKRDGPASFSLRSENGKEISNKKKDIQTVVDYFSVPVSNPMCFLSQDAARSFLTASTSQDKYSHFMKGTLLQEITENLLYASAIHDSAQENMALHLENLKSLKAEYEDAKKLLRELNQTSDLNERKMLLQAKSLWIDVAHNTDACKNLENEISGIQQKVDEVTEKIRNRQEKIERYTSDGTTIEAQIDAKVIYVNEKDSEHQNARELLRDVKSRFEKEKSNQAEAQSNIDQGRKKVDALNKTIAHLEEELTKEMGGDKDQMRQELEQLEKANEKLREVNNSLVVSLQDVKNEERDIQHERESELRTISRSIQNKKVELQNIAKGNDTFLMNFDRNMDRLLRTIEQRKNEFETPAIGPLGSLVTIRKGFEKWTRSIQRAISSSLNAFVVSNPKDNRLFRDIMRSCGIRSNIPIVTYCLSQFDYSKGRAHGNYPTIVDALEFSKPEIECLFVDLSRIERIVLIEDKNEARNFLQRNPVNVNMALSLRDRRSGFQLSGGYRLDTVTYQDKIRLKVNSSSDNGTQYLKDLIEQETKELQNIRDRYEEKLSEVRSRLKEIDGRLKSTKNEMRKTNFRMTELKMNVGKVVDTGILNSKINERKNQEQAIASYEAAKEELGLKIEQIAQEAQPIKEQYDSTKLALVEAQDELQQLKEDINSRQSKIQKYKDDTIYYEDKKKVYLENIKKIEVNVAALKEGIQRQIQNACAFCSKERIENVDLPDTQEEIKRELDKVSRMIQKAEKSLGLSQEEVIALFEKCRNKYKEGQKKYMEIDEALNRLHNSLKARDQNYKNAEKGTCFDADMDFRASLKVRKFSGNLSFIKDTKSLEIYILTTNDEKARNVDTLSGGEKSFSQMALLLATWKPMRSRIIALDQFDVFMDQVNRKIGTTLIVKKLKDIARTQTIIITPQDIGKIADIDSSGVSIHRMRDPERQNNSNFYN

Row | Binder | binding result [1] | binding result [2] | binding result [3]
1 | B1 | binds | binds | –
2 | B2 | – | binds | binds
3 | B3 | – | – | binds
4 | B4 | – | binds | binds
